Source: the Human Domainome abundance scans (Beltran et al. 2025)
± gives the uncertainty stated by the source.

B1: POU domain, class 2, transcription factor 3, residues 186 to 260; numbered along this chain, Q9UKI9 (parent)
chain: SDLEELEKFAKTFKQRRIKLGFTQGDVGLAMGKLYGNDFSQTTISRFEALNLSFKNMCKLKPLLEKWLNDAESSP

Variants of: B1
Experiment: abundance fitness (aPCA) (normalised: wild type 0, dead -1); higher = more abundant; growth selection in yeast, the domain comes from the species named
Settings: Homo sapiens

Abundance fitness: each site, then its substitutions
K59: E 0.053 ± 0.037; G -0.086 ± 0.027
L52: K -0.618 ± 0.084; W -0.201 ± 0.034; C -0.107 ± 0.062; R -0.717 ± 0.048; D -0.021 ± 0.11; E -0.131 ± 0.044; A -0.148 ± 0.039; I -0.183 ± 0.094
K66: W -0.161 ± 0.043; P -0.544 ± 0.08; H -0.104 ± 0.076; M -0.157 ± 0.059; A -0.055 ± 0.035; I -0.142 ± 0.13; R -0.024 ± 0.032
E72: R -0.122 ± 0.032; T -0.078 ± 0.055; G -0.089 ± 0.031; W -0.179 ± 0.041; Y -0.186 ± 0.1; K -0.133 ± 0.049; Q -0.026 ± 0.055; N -0.002 ± 0.06; C -0.071 ± 0.049; S -0.084 ± 0.042; I -0.213 ± 0.11
Q41: L -0.117 ± 0.026; G 0.009 ± 0.023; K 0.051 ± 0.037; S -0.002 ± 0.031; A 0.025 ± 0.027; I -0.072 ± 0.065; H -0.001 ± 0.089; R -0.001 ± 0.022
D2: E 0.015 ± 0.1; N -0.107 ± 0.21; G -0.01 ± 0.41
T23: S 0.026 ± 0.14
F22: L 0.065 ± 0.17; R -0.274 ± 0.25; S -0.282 ± 0.31
D38: N 0.037 ± 0.23
L64: D -0.557 ± 0.16; I -0.224 ± 0.063; C -0.148 ± 0.055; Q -0.836 ± 0.12; F -0.135 ± 0.077; Y -0.221 ± 0.073; S -0.743 ± 0.067; N -0.776 ± 0.36; K -1.01 ± 0.14; V -0.197 ± 0.036; G -0.784 ± 0.054
L3: F -0.055 ± 0.32
F9: G -0.387 ± 0.28; V -0.441 ± 0.2
Y35: S 0.01 ± 0.15; D -0.016 ± 0.15
N37: Y -0.157 ± 0.047; T -0.013 ± 0.033; C -0.027 ± 0.042; R 0.027 ± 0.023; H 0.04 ± 0.044; G 0.024 ± 0.021; A 0.02 ± 0.027; F -0.139 ± 0.05; D 0.023 ± 0.039
S53: F -0.66 ± 0.24; I -0.556 ± 0.18; K -0.091 ± 0.045; R -0.093 ± 0.031; H -0.205 ± 0.094; E -0.061 ± 0.041; P -0.032 ± 0.052; G 0.015 ± 0.026
P75: H -0.044 ± 0.088; M -0.059 ± 0.097; L 0.022 ± 0.07; G 0.011 ± 0.049; R -0.044 ± 0.053; K -0.128 ± 0.15; Q -0.086 ± 0.089; E -0.017 ± 0.074
L29: E 0.02 ± 0.029; H -0.062 ± 0.042; I 0.022 ± 0.042; F -0.099 ± 0.045; K 0.042 ± 0.029; C 0.026 ± 0.036; A 0.024 ± 0.027; V -0.007 ± 0.024; Q 0.007 ± 0.029; D -0.045 ± 0.039
S45: M -0.037 ± 0.035; I -0.125 ± 0.05; L -0.125 ± 0.026; W -0.138 ± 0.03; P -0.04 ± 0.036; R -0.024 ± 0.023; G -0.036 ± 0.022; K 0.021 ± 0.035; Y -0.099 ± 0.043; A 0.013 ± 0.025
N56: S -0.035 ± 0.036; I -0.034 ± 0.082; H 0.014 ± 0.057; E -0.001 ± 0.039; V -0.082 ± 0.033; W 0.014 ± 0.038; P -0.206 ± 0.054; K -0.024 ± 0.045; L -0.008 ± 0.033
F54: M 0.057 ± 0.049; G -0.05 ± 0.026; C -0.068 ± 0.046; P -0.041 ± 0.042; D -0.063 ± 0.046; H 0.033 ± 0.082; Q -0.025 ± 0.047; R 0.024 ± 0.026; Y 0.115 ± 0.058; L -0.041 ± 0.033; W -0.024 ± 0.032
E65: N -0.047 ± 0.25; C -0.033 ± 0.064; W -0.211 ± 0.041; D -0.031 ± 0.061; T -0.133 ± 0.054; P -0.58 ± 0.083
T12: Q 0.01 ± 0.13
L50: Y -0.077 ± 0.07; Q -0.055 ± 0.067; E -0.165 ± 0.04; N 0.087 ± 0.07; T -0.003 ± 0.047; A 0.017 ± 0.033; C -0.078 ± 0.069; W -0.105 ± 0.044; R 0.009 ± 0.031
D26: R -0.344 ± 0.2; G -0.125 ± 0.11
F47: R -1.08 ± 0.092; N -0.932 ± 0.34; L -0.098 ± 0.037; G -0.925 ± 0.063; E -0.942 ± 0.13; T -0.812 ± 0.13; A -0.712 ± 0.069; C -0.845 ± 0.14; S -0.915 ± 0.17; Q -1.22 ± 0.34
L63: R -0.022 ± 0.03; M -0.027 ± 0.042; C -0.031 ± 0.054; H 0.011 ± 0.061; W -0.07 ± 0.037
N69: K -0.125 ± 0.053; Q 0.033 ± 0.052; L -0.068 ± 0.037; E 0.002 ± 0.04; P -0.326 ± 0.067; W 0.014 ± 0.05; M -0.008 ± 0.047; S 0.006 ± 0.04; T 0.033 ± 0.047
